The record followed here is patent publication US20150368299A1 (published 2015).

Experiment in all cases: dot blot with densitometry; Aβ form dotted on nitrocellulose in serial dilution, antibody 0.2 µg/ml; higher value = weaker recognition
In one assay the target is T1, Aβ(1-42) globulomer (human, UniProt P05067 672-713).
T1 construct: the number was not measured for this preparation; also called 38/48-kDa Aβ(1-42) globulomer; Aβ(1-42) globular oligomer
On the procedure: (§1) The dot blot was developed with 10 ml BM Blue POD Substrate for 10 min. The development was stopped by intense washing of the dot blot with H₂O. Quantitative evaluation was done based on a densitometric analysis (GS800 densitometer (BioRad) and software package Quantity one, Version 4.5.0 (BioRad)) of the dot intensity. […] This threshold value was determined for every dot blot independently. The calculated value indicates the relation between recognition of Aβ(20-42) globulomer and the respective Aβ form for the given antibody.
(§2) The individual Aβ forms were applied in serial dilutions and incubated with the respective antibodies for immune reaction (1=Aβ(1-42) monomer, 0.1% NH₄OH; 2=Aβ(1-40) monomer, 0.1% NH₄OH; 3=Aβ(1-42) monomer, 0.1% NaOH; 4=Aβ(1-40) monomer, 0.1% NaOH; 5=Aβ(1-42) globulomer; 6=Aβ(12-42) globulomer; 7=Aβ(20-42) globulomer; 8=Aβ(1-42) fibril preparation; 9=sAPPα (Sigma); (first dot: 1 pmol)).

Another assay concerns the target T2, Aβ(12-42) globulomer (human).
T2 construct: Non-covalent oligomer; the subunit number was not measured
T2 peptide: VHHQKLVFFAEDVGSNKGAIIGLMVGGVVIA
On the procedure: as §1, §2

The target of the next assay is T3, Aβ(1-42) fibril (human, UniProt P05067 672-713).
T3 construct: also called Aβ(1-42) fibrils; Aβ(1-42) fibril preparation
On the procedure: as §1, §2

The target in assay [1] is T4, Aβ(1-42) monomer in 0.1% NH4OH (human).
T4 construct: The range counts on the Aβ peptide; also called Aβ(1-42) monomer, 0.1% NH4OH
The method, then:
as §1, §2

The target of assay [2] is T5, Aβ(1-40) monomer in 0.1% NH4OH (human).
T5 construct: The range counts on the Aβ peptide; also called Aβ(1-40) monomer, 0.1% NH4OH
On the procedure: as §1, §2

In assay [3] the target is T6, Aβ(1-42) monomer in 0.1% NaOH (human).
T6 construct: also called Aβ(1-42) monomer, 0.1% NaOH
The method, then:
as §1, §2

T5 sequence (peptide, as listed by the source): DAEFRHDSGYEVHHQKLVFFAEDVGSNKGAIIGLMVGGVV

B1: murine monoclonal anti-Aβ(20-42) globulomer antibody m4C9 (antibody, V domains shown)
VH: QVQLQQPGAELVKPGASVKLSCKAPGYTFTSYWMHWVKQRPGQGLEWIGRIDPKSGDTKYTEKFKSKATLTVDKPSSTAYMQLSSLTSEDSAVYYCTTMSKLSGTHAWFAYWGQGTLVTVSA
VL: DIKMTQSPSSMYASLGERVTITCKASQDINSYLTWFQQKPGKSPKTLIYRANRLVDGVPSRFSGSGSGQDYSLTISSLEYEDMGIYYCLQYDEFPLTFGAGTKLELK
notes: Murine hybridoma antibody from mice immunized with Aβ(20-42) globulomer; also called mAb 4C9; Anti-Aβ monoclonal antibody clone m4C9
As for B1, the “dot blot relation of recognition of Aβ(20-42) globulomer to recognition of this Aβ form” value (“dot blot relation” for short) was 30000 with Aβ(1-42) globulomer; 60000 in the assay with Aβ(12-42) globulomer; 32600 with Aβ(1-42) fibril; 36000 in assay [1]; 27300 in assay [2]; 39500 in assay [3].

B2: Anti-Aβ monoclonal antibody clone 6E10 (Covance cat. no. SIG-39320) (antibody, V domains shown)
VH: EVQLQQSGAELVKPGASVKLCTASGFNIKDTYIHWVKQRPEQGLEWIGRFDPVNVNTRYDSRFRGKATITSDASSNTAYLHLNSLTSEDTAVYYCSRSYYNGRRRFTYWGQGTLVTVSA
VL: DIVMTQSPSSLTVTAGEKVALTCKASQSLLSSGNQKNYLTWYQQKPGQPPKLLIYWASIRESGVPDRFTGSGSGTFFTLTISSVQAEDLAVYYCQNDYNYPFTFGSGTKLEIK
Turning to B2, the “dot blot relation” value with Aβ(12-42) globulomer turned out to be 6.

B3: murine monoclonal anti-Aβ(20-42) globulomer antibody m10B3 (antibody, V domains shown)
VH: EVKLVESGGGLVQPGGSRKLSCAASGFTFSDYEMVWVRQAPGEGLEWVAYISSGSRTIHYADTVKGRFTISRDNPKNTLFLQMSSLRSEDTAMYYCARTLLRLHFDYWGQGTILTVSS
VL: not shown
notes: Murine hybridoma antibody from mice immunized with Aβ(20-42) globulomer; also called mAb 10B3; Anti-Aβ monoclonal antibody clone m10B3
In the case of B3, the “dot blot relation” value is 57000 with Aβ(1-42) globulomer and 41000 with Aβ(12-42) globulomer.
